Assay results from publication PMC12098869, “An mRNA-display derived cyclic peptide scaffold reveals the substrate binding interactions of an N-terminal cysteine oxidase” (Nature Communications, 2025).

B1: RGS5_(2-15), synthetic peptide corresponding to the methionine excised N-terminus of RGS5, residues 2 to 15 [human] / 2-aminoethanethiol dioxygenase (ADO), full-length human, N-terminally His-tagged and biotinylated (pQE80L-Navi-ADO) … (parent complex)
chain 1: CKGLAALPHSCLER
chain 2: MPRDNMASLIQRIARQACLTFRGSGGGRGASDRDAASGPEAPMQPGFPENLSKLKSLLTQLRAEDLNIAPRKATLQPLPPNLPPVTYMHIYETDGFSLGVFLLKSGTSIPLHDHPGMHGMLKVLYGTVRISCMDKLDAGGGQRPRALPPEQQFEPPLQPREREAVRPGVLRSRAEYTEASGPCILTPHRDNLHQIDAVEGPAAFLDILAPPYDPDDGRDCHYYRVLEPVRPKEASSSACDLPREVWLLETPQADDFWCEGEPYPGPKVFP

Variants of: B1
Assay: SPR; parent: 1; read off a plot

| ratio to parent | Variant |
| --- | --- |
| ~74 | chain 2 MPRDNMASLIQRIARQACLTFRGSGGGRGASDRDAASGPEAPMQPGFPENLSKLKSLLTQLRAEDLNIAPRKATLQPLPPNLPPVTYMHIYETDGFSLGVALLKSGTSIPLHDHPGMHGMLKVLYGTVRISCMDKLDAGGGQRPRALPPEQQFEPPLQPREREAVRPGVLRSRAEYTEASGPCILTPHRDNLHQIDAVEGPAAFLDILAPPYDPDDGRDCHYYRVLEPVRPKEASSSACDLPREVWLLETPQADDFWCEGEPYPGPKVFP [chain 2 F101A] |
| ~9 | chain 2 MPRDNMASLIQRIARQACLTFRGSGGGRGASDRDAASGPEAPMQPGFPENLSKLKSLLTQLRAEDLNIAPRKATLQPLPPNLPPVTAMHIYETDGFSLGVFLLKSGTSIPLHDHPGMHGMLKVLYGTVRISCMDKLDAGGGQRPRALPPEQQFEPPLQPREREAVRPGVLRSRAEYTEASGPCILTPHRDNLHQIDAVEGPAAFLDILAPPYDPDDGRDCHYYRVLEPVRPKEASSSACDLPREVWLLETPQADDFWCEGEPYPGPKVFP [chain 2 Y87A] |
